In the supplement of paper PMC9732359:
± gives the uncertainty stated by the source.

Experiment: protein stability index of a GFP-peptide fusion (yeast GPS) (PSI 1-4); higher = more stable; sorted into four equal gates, so the index is relative within each strain
Procedure, shortened: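 The protein stability index of a peptide was calculated by multiplying its read frequency in each gate by that gate's number and adding the products. The peptides were tiled 17-residue stretches of yeast proteins, fused downstream of GFP on a Cherry-expressing plasmid and carried in yeast as a pooled library. Mid-log cultures in leucine-free medium were sorted into four equal gates by GFP/Cherry ratio, and each gate's plasmids were PCR-amplified and Illumina-sequenced.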

Row | Sequence | protein stability index (doa10∆) | protein stability index (pdr5∆) | protein stability index (san1∆) | protein stability index (ubr1∆)
1 | KLEGSENSEPPALESSP [SNF2] | 3.09 ± 0.073 | 2.97 ± 0.064 | 3.28 ± 0.071 | 3.26 ± 0.057
2 | GEAEAEKEEEEAKEESD [RPP1A] | 2.13 ± 0.22 | 3.51 ± 0.15 | 2.54 ± 0.16 | 3.52 ± 0.14
3 | AYLLLNAAGNTPDATKI [RPP2A] | 2.2 ± 0.038 | 2.17 ± 0.036 | 2.17 ± 0.051 | 2.49 ± 0.039
4 | DSEERDPKLEKCLNYRN [ITC1] | 2.85 ± 0.07 | 2.74 ± 0.088 | 2.71 ± 0.061 | 2.49 ± 0.038
5 | LAFAKLVHSEYLINGKR [SRP68] | 2.18 ± 0.11 | 2.5 ± 0.056 | 2.15 ± 0.082 | 2.53 ± 0.034
6 | SKGYVKTQFSWQYYYYT [RPS10A] | 2.81 ± 0.077 | 2.54 ± 0.06 | 2.76 ± 0.05 | 2.92 ± 0.056
7 | EILRIHSRKMNLTRGIN [RPT6] | 2.85 ± 0.06 | 2.99 ± 0.071 | 2.29 ± 0.075 | 2.52 ± 0.06
8 | DDDDDEDEEEEEEVTDQ [QCR6] | 3.02 ± 0.061 | 3.73 ± 0.22 | 3.4 ± 0.047 | 3.4 ± 0.12
9 | WNVEKFKKDFEVNISSL [RPC40] | 2.03 ± 0.11 | 2.98 ± 0.12 | 2.6 ± 0.084 | 2.59 ± 0.082
10 | DAVLKIFSFHQDSIFQR [SRB8] | 3.12 ± 0.11 | 2.79 ± 0.12 | 3.04 ± 0.077 | 2.77 ± 0.057
11 | RTKTPGPGGQAALRALA [RPS14B] | 2.39 ± 0.077 | 2.55 ± 0.11 | 2.23 ± 0.1 | 2.46 ± 0.08
12 | KIMNVTTDSLTKVLQAD [YMR129W/POM152] | 3.25 ± 0.068 | 3.05 ± 0.068 | 3.12 ± 0.04 | 3.23 ± 0.064
13 | MDVDQFDFLDDGTAQLS [YJR042W/NUP85] | 2.46 ± 0.079 | 2.98 ± 0.075 | 3.32 ± 0.068 | 2.53 ± 0.063
14 | NSEISNLPKDKSGIPEF [SSN2] | 2.98 ± 0.087 | 3 ± 0.11 | 2.9 ± 0.072 | 3.33 ± 0.076
15 | TNVLNFIKLQKIDIIEL [FAS1] | 2.35 ± 0.042 | 1.94 ± 0.043 | 1.91 ± 0.075 | 2.05 ± 0.044
16 | ISKLFLRGDSVIVVLKT [SMD2] | 2.87 ± 0.16 | 2.89 ± 0.2 |  | 
17 | AKGKSGVQTAYIDYSSK [RRP40] | 2.54 ± 0.24 |  |  | 2.91 ± 0.24
18 | GISRDIKALQDSLFKDV [YML103C/NUP188] | 2.19 ± 0.077 | 1.99 ± 0.063 | 2.07 ± 0.089 | 1.77 ± 0.042
19 | QELRKKVNPNIMNMIEN [SMC2] | 2.45 ± 0.13 | 2.72 ± 0.11 | 2.37 ± 0.13 | 2.47 ± 0.062
20 | SSLFQEKLLETNVSKQN [ECM29] | 2.74 ± 0.11 | 2.55 ± 0.1 | 2.35 ± 0.065 | 2.52 ± 0.071
21 | HVKAGKGLIKVNGSPIT [RPS16A] | 2.62 ± 0.065 | 2.78 ± 0.059 | 2.87 ± 0.061 | 3.1 ± 0.051
22 | SSVTSDSMKYTISSLFV [RPC82] | 1.93 ± 0.046 | 2.3 ± 0.043 | 2.14 ± 0.06 | 2.16 ± 0.042
23 | CRVCSSHTGLVRKYDLN [RPS29B] | 2.56 ± 0.058 | 2.33 ± 0.059 | 2.38 ± 0.079 | 1.94 ± 0.047
24 | DIDLETYSFIDNDRFNV [YML103C/NUP188] | 2.47 ± 0.064 | 2.54 ± 0.056 | 2.46 ± 0.081 | 2.21 ± 0.042
25 | NDIDDLDMELAELDPSL [SEC65] | 3.34 ± 0.15 | 3.23 ± 0.089 | 3.08 ± 0.077 | 3.03 ± 0.073
26 | AAVVKTSSRQTVFLPMV [RPT5] | 3.02 ± 0.051 | 3.15 ± 0.056 | 2.97 ± 0.051 | 2.87 ± 0.061

Row | Sequence | protein stability index (doa10∆) | protein stability index (pdr5∆) | protein stability index (san1∆) | protein stability index (ubr1∆)
27 | DKQYRTAVATLLKELSK [SMC3] | 2.49 ± 0.082 | 2.13 ± 0.084 | 3.06 ± 0.061 | 2.72 ± 0.071
28 | NKGLVVSPYDYNHKRVS [DIB1] | 2.39 ± 0.066 | 2.41 ± 0.066 | 1.61 ± 0.11 | 2.33 ± 0.087
29 | NIKKKDTKDALSTRELA [RPC53] |  |  |  | 2.7 ± 0.29
30 | GSLNATNFSPTPANNGE [SNF2] | 2.93 ± 0.055 | 3.07 ± 0.061 | 2.76 ± 0.049 | 3.04 ± 0.051
31 | KLFNRIVERETNWIIYP [CSN12] | 2.81 ± 0.19 | 3.48 ± 0.24 | 2.85 ± 0.21 | 
32 | CFDSTTGRDAGFGILED [RRP40] | 3.33 ± 0.13 | 3.24 ± 0.13 | 3.47 ± 0.12 | 3.41 ± 0.074
33 | TTDNNNSGNSNSNSNQQ [RPT1] | 3.3 ± 0.12 | 2.93 ± 0.14 | 2.59 ± 0.23 | 3.36 ± 0.2
34 | ENHNGQSISNENDVKPI [SWI3] | 2.07 ± 0.054 | 1.83 ± 0.051 | 2.48 ± 0.069 | 2.48 ± 0.045
35 | NGERKFLKEKDTVAELQ [FAS2] |  | 3.38 ± 0.23 | 3.11 ± 0.24 | 3.02 ± 0.076
36 | NANTGFSFGGTQTGQNT [YGL172W/NUP49] | 3.42 ± 0.14 | 3.21 ± 0.11 | 3.23 ± 0.086 | 3.49 ± 0.11
37 | YRLDIIESALKSKLDQD [RPN2] | 1.66 ± 0.093 | 1.96 ± 0.12 | 1.99 ± 0.16 | 1.94 ± 0.19
38 | EMINEQKLPQYIIQGSN [RGR1] |  | 2.96 ± 0.27 |  | 3.15 ± 0.2
39 | VTEETTKQIQSVRIDGR [SIR4] | 2.31 ± 0.086 | 3.06 ± 0.077 | 2.83 ± 0.066 | 2.12 ± 0.074
40 | EYMKRHPTTIESLREIP [SEC65] | 3.25 ± 0.082 | 3.21 ± 0.068 | 3.17 ± 0.059 | 3.06 ± 0.06
41 | ASVGDILKTLERSICAL [YML031W/NDC1] | 2.12 ± 0.066 | 2.94 ± 0.088 | 2.79 ± 0.086 | 2.64 ± 0.058
42 | TKYERARILGTRALQIS [RPO26] |  | 1.36 ± 0.24 |  | 1.21 ± 0.13
43 | LYTLAQETEGTNRHTLA [SIR3] | 2.73 ± 0.077 | 2.09 ± 0.072 | 2.2 ± 0.084 | 2.52 ± 0.059
44 | EDRNESVNIAFAISMGY [ECM29] | 3.02 ± 0.12 | 2.89 ± 0.074 | 2.88 ± 0.055 | 2.82 ± 0.07
45 | LNLDEIVACELILSGDT [YJL039C/NUP192] | 2.64 ± 0.08 | 2.7 ± 0.084 | 3.05 ± 0.096 | 2.6 ± 0.12
46 | DEFIKTHEDLPKEVDGL [IRR1] | 3.2 ± 0.081 | 3.29 ± 0.094 | 3.04 ± 0.078 | 3.21 ± 0.067
47 | VLTGGYLDQHKRTRLES [SMC3] | 2.26 ± 0.17 | 2.04 ± 0.23 | 1.19 ± 0.16 | 2.62 ± 0.26
48 | SQSSAAAGASVDDKRRN [RPN6] | 3.38 ± 0.2 | 3.41 ± 0.088 | 3.02 ± 0.087 | 3.25 ± 0.087
49 | RVIKDFKKLNSKNMSKS [YMR153W/NUP53] | 1.95 ± 0.16 |  | 2.64 ± 0.21 | 
50 | LQVSEKDLFELERYYKE [ARP7] | 3.14 ± 0.085 | 3.23 ± 0.077 | 3.48 ± 0.14 | 3.46 ± 0.065
51 | LRTVKEVQFGLFSPEEV [RPO21] | 2.76 ± 0.082 | 2.98 ± 0.081 | 3.02 ± 0.046 | 2.95 ± 0.043
52 | IKIKSLEYEISKLKKET [YIL149C/MLP2] | 2.97 ± 0.26 | 2.97 ± 0.096 | 2.99 ± 0.075 | 3.06 ± 0.07
